Common to all, as to conditions: protein: recombinant; chain copies: 4; hairpin
In data set [1] the target is T1, Plasmodium falciparum lactate dehydrogenase (PfLDH) (Plasmodium falciparum, UniProt Q71T02 1-316). As to the kind of experiment: EMSA; apparent, 1:1 fit; EMSA: 25 nM strand, 0-2500 nM PfLDH (tetramer concentration in legends; text says Kd per subunit), 25 mM Tris-HCl pH 7.5, 100 mM NaCl, 20 mM imidazole, 25 C 1 h.
In data set [2] the target is T1, Plasmodium falciparum lactate …. As to the kind of experiment: EMSA; 4 C; EMSA: 25 nM strand, 0-2500 nM PfLDH (tetramer concentration in legends; text says Kd per subunit), 25 mM Tris-HCl pH 7.5, 100 mM NaCl, 20 mM imidazole, 25 C 1 h.
Data set [3] has the same target. As to the kind of experiment: EMSA; 4 C; Fig. S15 panel assignment of 606/355 unclear; EMSA: 25 nM strand, 0-2500 nM PfLDH (tetramer concentration in legends; text says Kd per subunit), 25 mM Tris-HCl pH 7.5, 100 mM NaCl, 20 mM imidazole, 25 C 1 h.

B1: aptamer staple 87 (ssDNA)
DNA: TCATTACCCGACAATAAACAACATATTTAGGCTTTTTTTTTTTTTTTTTTTTCTGGGCGGTAGAACCATAGTGACCCAGCCGTCTAC
Regarding B1, the Kd in data set [1] came out at 878 ± 154 nM.

B2: aptamer staple 95 (ssDNA)
DNA: CGGAATTATTGAAAGGAATTGAGGTGAAAAATTTTTTTTTTTTTTTTTTTTTCTGGGCGGTAGAACCATAGTGACCCAGCCGTCTAC
As to B2, in data set [1], the Kd is 846 ± 161 nM.

B3: aptamer-staple 11 Edge (ssDNA)
DNA: CCTAATTTACGCTAACGAGCGTCTAATCAATACTGGGCGGTAGAACCATAGTGACCCAG
Regarding B3, the Kd in data set [2] was determined as 596 ± 107 nM.

B4: aptamer staple 97 (ssDNA)
DNA: CTAAAGCAAGATAGAACCCTTCTGAATCGTCTTTTTTTTTTTTTTTTTTTTTCTGGGCGGTAGAACCATAGTGACCCAGCCGTCTAC
As to B4, the Kd in data set [1] amounted to 760 ± 126 nM.

B5: aptamer staple 76 (ssDNA)
DNA: TATCACCGTACTCAGGAGGTTTAGCGGGGTTTTTTTTTTTTTTTTTTTTTTTCTGGGCGGTAGAACCATAGTGACCCAGCCGTCTAC
For B5, the Kd in data set [1] is 965 ± 265 nM.

B6: aptamer staple 91 (ssDNA)
DNA: TATGTAAACCTTTTTTAATGGAAAAATTACCTTTTTTTTTTTTTTTTTTTTTCTGGGCGGTAGAACCATAGTGACCCAGCCGTCTAC
For the molecule B6, the Kd in data set [1] stood at 984 ± 177 nM.

B7: aptamer-staple 121 Middle (ssDNA)
DNA: TTTCATTTGGTCAATACTGGGCGGTAGAACCATAGTGACCCAGACCTGTTTATATCGCG
For B7, the binding result in data set [2] is given as “no binding”.

B8: aptamer-staple 87 Middle (ssDNA)
DNA: TCATTACCCGACAATACTGGGCGGTAGAACCATAGTGACCCAGAACAACATATTTAGGC
Take B8: the Kd in data set [2] was determined as 1720 ± 244 nM.

B9: aptamer staple 93 (ssDNA)
DNA: GAGCAAAAACTTCTGAATAATGGAAGAAGGAGTTTTTTTTTTTTTTTTTTTTCTGGGCGGTAGAACCATAGTGACCCAGCCGTCTAC
With B9, in data set [1], the Kd turned out to be 647 ± 128 nM.

B10: aptamer staple 85 (ssDNA)
DNA: CTTTACAGTTAGCGAACCTCCCGACGTAGGAATTTTTTTTTTTTTTTTTTTTCTGGGCGGTAGAACCATAGTGACCCAGCCGTCTAC
Regarding B10, the Kd in data set [1] came to 713 ± 161 nM.

B11: aptamer staple 83 (ssDNA)
DNA: TTATTACGGTCAGAGGGTAATTGAATAGCAGCTTTTTTTTTTTTTTTTTTTTCTGGGCGGTAGAACCATAGTGACCCAGCCGTCTAC
Regarding B11, the Kd in data set [1] was found to be 1090 ± 183 nM.

B12: aptamer staple 89 (ssDNA)
DNA: AGAGGCATAATTTCATCTTCTGACTATAACTATTTTTTTTTTTTTTTTTTTTCTGGGCGGTAGAACCATAGTGACCCAGCCGTCTAC
As to B12, the Kd in data set [1] came out at 750 ± 95 nM.

B13: aptamer staple 77 (ssDNA)
DNA: TGCTCAGTCAGTCTCTGAATTTACCAGGAGGTTTTTTTTTTTTTTTTTTTTTCTGGGCGGTAGAACCATAGTGACCCAGCCGTCTAC
B13: the Kd in data set [1] turned out to be 726 ± 186 nM.

B14: aptamer-staple 111 Edge (ssDNA)
DNA: AAACCCTCTTTTACCAGTAATAAAAGGGATTCACCAGTCACACGTTTTCTGGGCGGTAGAACCATAGTGACCCAG
Regarding B14, in data set [3], the Kd was found to be 606 ± 164 nM.

B15: aptamer-staple 211 Edge (ssDNA)
DNA: GCTAAATCTTTTCTGTAGCTCAACATGTATTGCTGACTGGGCGGTAGAACCATAGTGACCCAG
With B15, the Kd in data set [3] is 355 ± 73 nM.

B16: aptamer staple 79 (ssDNA)
DNA: TGAGGCAGGCGTCAGACTGTAGCGTAGCAAGGTTTTTTTTTTTTTTTTTTTTCTGGGCGGTAGAACCATAGTGACCCAGCCGTCTAC
With B16, the Kd in data set [1] was 826 ± 300 nM.

B17: aptamer staple 81 (ssDNA)
DNA: CCGGAAACACACCACGGAATAAGTAAGACTCCTTTTTTTTTTTTTTTTTTTTCTGGGCGGTAGAACCATAGTGACCCAGCCGTCTAC
In the case of B17, the Kd in data set [1] came out at 970 ± 254 nM.

The values are drawn from article PMC4759581, “A DNA aptamer recognising a malaria protein biomarker can function as part of a DNA origami assembly”.
